In publication PMC12796366:

Experiments:
EGFP (Aequorea victoria) = experiment: AUC; sedimentation velocity, 0.5 mg/mL of the isolated fluorescent protein, 25 mM phosphate buffer pH 6.2 or 7.4, 150 mM NaCl, 1% glycerol, 1 mM MgCl2, 0.5 mM beta-mercaptoethanol (legend also: 50 mM KCl), 42,000 rpm, 20 °C, interference detection, c(s) fit with Sedfit
EYFP (Aequorea victoria) = experiment: as above

| Substance | stoichiometry N (EGFP (Aequorea victoria)) | stoichiometry N (EYFP (Aequorea victoria)) |
| --- | --- | --- |
| EGFP | 2 |  |
| EYFP |  | 2 |
